Experimental data: publication PMC12403663

B1: RBP4-binding aptamer (ssDNA)
DNA: ATACCAGCTTATTCAATTACAGTAGTGAGGGGTCCGTCGTGGGGTAGTTGGGTCGTGGAGATAGTAAGTGC
modifications: 5' Amino C6; 3' Thiol C6 SS
B2: HSA-binding aptamer (ssDNA)
DNA: TGCGGTTGTAGTACTCGTGGCCG
modifications: 5' Amino C6; 3' Thiol C6 SS

Experiments:
[1] = biological target: retinol-binding protein 4 (RBP4, also printed RPB4) (UniProt P02753 19-201); assay: electrochemical aptasensor
[2] = biological target: human serum albumin (HSA) (Homo sapiens, UniProt P02768 25-609); assay: electrochemical aptasensor
Sequence of human serum albumin (HSA) (P02768 25-609): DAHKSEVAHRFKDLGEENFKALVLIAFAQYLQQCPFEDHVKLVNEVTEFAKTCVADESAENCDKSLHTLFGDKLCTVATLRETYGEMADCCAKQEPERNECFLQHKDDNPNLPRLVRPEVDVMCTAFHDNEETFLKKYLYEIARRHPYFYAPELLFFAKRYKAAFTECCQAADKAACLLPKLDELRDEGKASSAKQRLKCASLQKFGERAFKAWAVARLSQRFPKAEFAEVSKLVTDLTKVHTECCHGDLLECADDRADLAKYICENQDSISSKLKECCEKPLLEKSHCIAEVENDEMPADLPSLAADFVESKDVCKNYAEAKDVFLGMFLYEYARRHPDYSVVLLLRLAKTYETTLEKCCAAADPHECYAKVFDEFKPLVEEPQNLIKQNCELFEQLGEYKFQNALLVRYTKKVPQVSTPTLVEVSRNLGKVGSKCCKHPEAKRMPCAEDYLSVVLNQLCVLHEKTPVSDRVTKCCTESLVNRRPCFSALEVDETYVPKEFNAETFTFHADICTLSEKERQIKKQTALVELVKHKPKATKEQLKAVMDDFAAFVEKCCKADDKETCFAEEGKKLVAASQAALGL

| Binder | binding result [1] | binding result [2] |
| --- | --- | --- |
| B1 | binds |  |
| B2 |  | binds |
